Data reported in article PMC2132754.

Biological target: recombinant mouse α-catenin with a COOH-terminal histidine tag (mouse) (UniProt P26231)
Experiment: co-sedimentation

Chain of UniProt P26231 (P26231 whole entry): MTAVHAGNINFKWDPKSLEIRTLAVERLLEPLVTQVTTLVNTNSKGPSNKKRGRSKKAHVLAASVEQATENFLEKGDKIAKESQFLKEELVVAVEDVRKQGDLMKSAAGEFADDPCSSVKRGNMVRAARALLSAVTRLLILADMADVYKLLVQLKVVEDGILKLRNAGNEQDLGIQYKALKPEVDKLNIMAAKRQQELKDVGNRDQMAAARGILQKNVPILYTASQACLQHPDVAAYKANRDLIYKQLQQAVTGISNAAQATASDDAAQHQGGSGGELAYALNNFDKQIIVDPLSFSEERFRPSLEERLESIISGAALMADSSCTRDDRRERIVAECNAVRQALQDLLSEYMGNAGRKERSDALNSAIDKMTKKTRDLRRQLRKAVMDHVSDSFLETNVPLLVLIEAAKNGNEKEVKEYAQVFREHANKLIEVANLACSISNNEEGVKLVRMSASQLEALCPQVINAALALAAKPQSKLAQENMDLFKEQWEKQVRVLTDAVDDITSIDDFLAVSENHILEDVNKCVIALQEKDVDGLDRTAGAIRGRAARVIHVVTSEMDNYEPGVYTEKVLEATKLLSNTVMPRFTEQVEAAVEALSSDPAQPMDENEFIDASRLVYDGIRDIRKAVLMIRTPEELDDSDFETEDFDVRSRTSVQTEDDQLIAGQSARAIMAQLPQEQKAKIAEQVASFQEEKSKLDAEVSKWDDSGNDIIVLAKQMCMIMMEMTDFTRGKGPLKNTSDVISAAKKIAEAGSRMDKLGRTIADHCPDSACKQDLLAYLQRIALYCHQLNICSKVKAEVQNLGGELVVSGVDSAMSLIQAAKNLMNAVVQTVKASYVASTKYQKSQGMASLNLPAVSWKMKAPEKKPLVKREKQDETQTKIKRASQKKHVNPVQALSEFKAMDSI

stoichiometry N: 1
Substance: vinculin 90-kD head fragment (V8 protease fragment of chicken gizzard vinculin) (domain or fragment)
